Results taken from article PMC10117725, “From an Hsp90 - binding protein to a peptide drug” (microLife, 2022).

B1: L21 (peptide)
peptide: ENFKFFGQYANLKELRK
notes: source: synthetic peptide (Apeptide, Shanghai; purity >95%)
B2: L16 (peptide)
peptide: NYKIEMKNNKIILLD
notes: as for B1
B3: L10 (peptide)
peptide: NTRTAKGHYFVTTFYRNG
notes: as for B1
B4: L15 (peptide)
peptide: TAKGHYFVTTFYRNG
notes: as for B1
B5: L13 (peptide)
peptide: GHYFVTTFY
notes: as for B1
B6: L26 (peptide)
peptide: DEIVKELRSRYNISTEKSPILKMHIDGDLKGSSVGYRKLEIDFSKRENSKLSVIEFLSYKPAKK
notes: as for B1

Molecular target: T1, recombinant Hsp90α (human, UniProt P07900 1-732)
T1 construct: source: bought: Abcam (recombinant)
Assay: far-Western, overlay or dot blot
Conditions: both partners purified

| Binder | binding result |
| --- | --- |
| B1 | binds |
| B2 | binds |
| B3 | binds |
| B4 | binds |
| B5 | binds |
| B6 | binds |
